Laboratory results published in paper PMC10202398, “Nitrite reductase activity in F420-dependent sulphite reductase (Fsr) from Methanocaldococcus jannaschii” (Access Microbiology, 2023).

B1: MjFsrI (F420-dependent sulphite reductase, Fsr) (Methanocaldococcus jannaschii DSM 2661) (protein)
chain: MYEWKLNEIVDSGVCARCGTCTIVCPNGILTFDERPKLIDECLRKGHGMCFEVCPRVSSAKYQIKIREKFYEKYYYAKSDIEGQDGGVVTAFLKYLLENGKIDGAIVVGDECWKPVSLVVQNAEDLLKTAKSKYAISTLDALRKAGEMGLEKVAVVGLPCQINGLRKLQYFPYHAKHDLELGRNGKPVKLPKIEYLIGLFCTEKFRYDNMKEVLSKHGIDIEKVEKFDIKKGKLLVYVNGEKKEFDLKEFEICSGCKMCRDFDAEMADVSVGCVGSPDGYSTIIIRTEKGEEIKNAVELKEGVNLEEIEKLRQLKLKRFKKEVERRRENNEYVSFYWTADYGGIGKRADGTYFIRVRAKPGGWYKPEEIKEILDIAEEYNAKIKVTDRAGYELHGISGFDVEDIVLRLREKGLLTGSEGPLVRATLACPGGGNCSSGLVDTTELARIIEDNFKERPAPYKFKIAISGCPNGCVRPQVHDIGIAGVKYPKVNEEKCNGCGRCAEVCKVEAIDIRGETSYTNYNVCVGCGKCIKNCPNEAREVKEEGYLVYVGGKTGREVVEGVKMKLMSVDEIINFIDKVLVVYGKYAEKPQRERLAAVMKRVGYGKFLEEVKELMKKEIC
notes: native, purified from sulphite-grown Mj cells; untagged

Key:
[1] = molecular target: T1, MjFsrI (F420-dependent sulphite reductase, Fsr) (Methanocaldococcus jannaschii, UniProt Q58280); assay: non-degradative extraction from purified protein, reversed-phase HPLC; type: binding; details: native co-purified flavin, 25 mM potassium phosphate pH 7
T1 construct: native, purified from sulphite-grown Mj cells; untagged
T1 sequence (Q58280 1-620): B1 chain

[2] = substrate: NO; assay: purified protein; type: biochemical, Methanocaldococcus jannaschii; details: 40 µM F420H2, 25-600 µM hydroxylamine, 100 mM potassium phosphate pH 7
[3] = substrate: O=NO; assay: purified protein; type: biochemical, Methanocaldococcus jannaschii; details: 40 µM F420H2, 5-150 µM nitrite, 100 mM potassium phosphate pH 7

Molecule	non-degradative extraction from purified protein, reversed-phase HPLC [1]	Km [2] [µM]	Km [3] [µM]
Cc1cc2nc3c(=O)[nH]c(=O)nc-3n(C[C@H](O)[C@H](O)[C@H](O)COP(=O)(O)OP(=O)(O)OC[C@H]3O[C@@H](n4cnc5c(N)ncnc54)[C@H](O)[C@@H]3O)c2cc1C [FAD]	Reversed-phase HPLC identified the flavin extracted from MjFsrI as FAD		
B1		112.4 ± 14.4	8.9 ± 0.9
